Assay results as given in patent publication US20160002357A1 (Pfizer, published 2016).

What follows are binders tested against T1, P-cadherin-ECD1-3-Fc protein (human P-cadherin-Fc) (human, UniProt P22223 108-440) (assay: phage scFv ELISA, coated P-cadherin-ECD1-3-Fc).
T1 construct: Construct was expressed with signal peptide and pro-peptide (PACE co-transfected to process the propeptide); not shown: hinge and CH2 and CH3 domains of human IgG1
Experimental: P-cadherin-ECD1-3-Fc protein or negative control protein was coated overnight at 4° C. on 96-well Nunc Maxisorp® plates (Thermo Fisher Scientific, Madison, Conn.) at a concentration of 2 μg/mL in PBS+Ca²⁺ and Mg²⁺. Plates were washed three times using PBS+Ca²⁺ and Mg²⁺ and blocked for 1 hour at room temperature in 3% milk/PBS+Ca²⁺ and Mg²⁺. Phage samples prepared as described above were added to the blocked plates for 1 hour at room temperature. Plates were washed three times with PBS+Ca²⁺ and Mg²⁺ prior to the addition of secondary antibody (anti M13-HRP 1:2000, GE Healthcare, Piscataway, N.J.). Plates were incubated for a further 1 hour at room temperature and washed six times with PBS+Ca²⁺ and Mg²⁺. Signal was developed using TMB (SurModics, Eden Prairie, Minn.), the reaction stopped with H₂SO₄ and the absorbance read at 450 nm on an EnVision® plate reader (Perkin Elmer, Waltham, Mass.).

T1 sequence (P22223 108-440): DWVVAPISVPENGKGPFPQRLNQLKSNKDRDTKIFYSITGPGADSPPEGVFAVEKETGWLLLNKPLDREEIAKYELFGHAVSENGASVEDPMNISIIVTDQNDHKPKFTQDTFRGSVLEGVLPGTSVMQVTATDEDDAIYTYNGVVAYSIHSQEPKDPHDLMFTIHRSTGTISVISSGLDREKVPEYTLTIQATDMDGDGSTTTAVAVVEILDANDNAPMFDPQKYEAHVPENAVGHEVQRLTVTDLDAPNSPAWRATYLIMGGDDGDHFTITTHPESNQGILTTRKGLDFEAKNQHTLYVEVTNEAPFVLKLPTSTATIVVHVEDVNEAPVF

| Binder | % of binding of Clone #153 to human P-cadherin-Fc | Human P-cadherin-Fc binding (OD450) | Z Score |
| --- | --- | --- | --- |
| anti-P-cadherin scFv 153 alanine-mutant H1.1-Ala (scFv, V domains shown, scFv on phage) VH: EVQLVQSGAEVKKPGASVKVSCKASAYTFTSYGISWVRQAPGQGLEWMGWISAYNGNTNYAQKLQGRVTMTTDTSTSTAYMELRSLRSDDTAVYYCATIDTANAFGIWGQGTMVTVSS VL: QSVLTQPPSVSAAPGQKVTISCSGSSSNIGNNYVSWYQQLPGTAPKLLIYDNNKRPSGIPDRFSGSKSGTSATLGITGLQTGDEADYYCGTWDSSLSGVVFGGGTKLTVL | 135% | 1.79 OD450 | 0.7 |
| anti-P-cadherin scFv 153 alanine-mutant H1.2-Ala (scFv, V domains shown, scFv on phage) VH: EVQLVQSGAEVKKPGASVKVSCKASGATFTSYGISWVRQAPGQGLEWMGWISAYNGNTNYAQKLQGRVTMTTDTSTSTAYMELRSLRSDDTAVYYCATIDTANAFGIWGQGTMVTVSS VL: QSVLTQPPSVSAAPGQKVTISCSGSSSNIGNNYVSWYQQLPGTAPKLLIYDNNKRPSGIPDRFSGSKSGTSATLGITGLQTGDEADYYCGTWDSSLSGVVFGGGTKLTVL | 179% | 2.36 OD450 | 1.7 |
| anti-P-cadherin scFv 153 alanine-mutant H1.3-Ala (scFv, V domains shown, scFv on phage) VH: EVQLVQSGAEVKKPGASVKVSCKASGYAFTSYGISWVRQAPGQGLEWMGWISAYNGNTNYAQKLQGRVTMTTDTSTSTAYMELRSLRSDDTAVYYCATIDTANAFGIWGQGTMVTVSS VL: QSVLTQPPSVSAAPGQKVTISCSGSSSNIGNNYVSWYQQLPGTAPKLLIYDNNKRPSGIPDRFSGSKSGTSATLGITGLQTGDEADYYCGTWDSSLSGVVFGGGTKLTVL | 174% | 2.3 OD450 | 1.6 |
| anti-P-cadherin scFv 153 alanine-mutant H1.4-Ala (scFv, V domains shown, scFv on phage) VH: EVQLVQSGAEVKKPGASVKVSCKASGYTATSYGISWVRQAPGQGLEWMGWISAYNGNTNYAQKLQGRVTMTTDTSTSTAYMELRSLRSDDTAVYYCATIDTANAFGIWGQGTMVTVSS VL: QSVLTQPPSVSAAPGQKVTISCSGSSSNIGNNYVSWYQQLPGTAPKLLIYDNNKRPSGIPDRFSGSKSGTSATLGITGLQTGDEADYYCGTWDSSLSGVVFGGGTKLTVL | 177% | 2.33 OD450 | 1.6 |
| anti-P-cadherin scFv 153 alanine-mutant H1.5-Ala (scFv, V domains shown, scFv on phage) VH: EVQLVQSGAEVKKPGASVKVSCKASGYTFASYGISWVRQAPGQGLEWMGWISAYNGNTNYAQKLQGRVTMTTDTSTSTAYMELRSLRSDDTAVYYCATIDTANAFGIWGQGTMVTVSS VL: QSVLTQPPSVSAAPGQKVTISCSGSSSNIGNNYVSWYQQLPGTAPKLLIYDNNKRPSGIPDRFSGSKSGTSATLGITGLQTGDEADYYCGTWDSSLSGVVFGGGTKLTVL | 155% | 2.05 OD450 | 1.2 |
| anti-P-cadherin scFv 153 alanine-mutant H1.6-Ala (scFv, V domains shown, scFv on phage) VH: EVQLVQSGAEVKKPGASVKVSCKASGYTFTAYGISWVRQAPGQGLEWMGWISAYNGNTNYAQKLQGRVTMTTDTSTSTAYMELRSLRSDDTAVYYCATIDTANAFGIWGQGTMVTVSS VL: QSVLTQPPSVSAAPGQKVTISCSGSSSNIGNNYVSWYQQLPGTAPKLLIYDNNKRPSGIPDRFSGSKSGTSATLGITGLQTGDEADYYCGTWDSSLSGVVFGGGTKLTVL | 149% | 1.97 OD450 | 1 |
| anti-P-cadherin scFv 153 alanine-mutant H1.7-Ala (scFv, V domains shown, scFv on phage) VH: EVQLVQSGAEVKKPGASVKVSCKASGYTFTSAGISWVRQAPGQGLEWMGWISAYNGNTNYAQKLQGRVTMTTDTSTSTAYMELRSLRSDDTAVYYCATIDTANAFGIWGQGTMVTVSS VL: QSVLTQPPSVSAAPGQKVTISCSGSSSNIGNNYVSWYQQLPGTAPKLLIYDNNKRPSGIPDRFSGSKSGTSATLGITGLQTGDEADYYCGTWDSSLSGVVFGGGTKLTVL | 129% | 1.71 OD450 | 0.6 |
| anti-P-cadherin scFv 153 alanine-mutant H1.8-Ala (scFv, V domains shown, scFv on phage) VH: EVQLVQSGAEVKKPGASVKVSCKASGYTFTSYAISWVRQAPGQGLEWMGWISAYNGNTNYAQKLQGRVTMTTDTSTSTAYMELRSLRSDDTAVYYCATIDTANAFGIWGQGTMVTVSS VL: QSVLTQPPSVSAAPGQKVTISCSGSSSNIGNNYVSWYQQLPGTAPKLLIYDNNKRPSGIPDRFSGSKSGTSATLGITGLQTGDEADYYCGTWDSSLSGVVFGGGTKLTVL | 27% | 0.36 OD450 | -1.5 |
| anti-P-cadherin scFv 153 alanine-mutant H1.9-Ala (scFv, V domains shown, scFv on phage) VH: EVQLVQSGAEVKKPGASVKVSCKASGYTFTSYGASWVRQAPGQGLEWMGWISAYNGNTNYAQKLQGRVTMTTDTSTSTAYMELRSLRSDDTAVYYCATIDTANAFGIWGQGTMVTVSS VL: QSVLTQPPSVSAAPGQKVTISCSGSSSNIGNNYVSWYQQLPGTAPKLLIYDNNKRPSGIPDRFSGSKSGTSATLGITGLQTGDEADYYCGTWDSSLSGVVFGGGTKLTVL | 167% | 2.21 OD450 | 1.4 |
| anti-P-cadherin scFv 153 alanine-mutant H1.10-Ala (scFv, V domains shown, scFv on phage) VH: EVQLVQSGAEVKKPGASVKVSCKASGYTFTSYGIAWVRQAPGQGLEWMGWISAYNGNTNYAQKLQGRVTMTTDTSTSTAYMELRSLRSDDTAVYYCATIDTANAFGIWGQGTMVTVSS VL: QSVLTQPPSVSAAPGQKVTISCSGSSSNIGNNYVSWYQQLPGTAPKLLIYDNNKRPSGIPDRFSGSKSGTSATLGITGLQTGDEADYYCGTWDSSLSGVVFGGGTKLTVL | 161% | 2.13 OD450 | 1.3 |
| anti-P-cadherin scFv 153 alanine-mutant H2.1-Ala (scFv, V domains shown, scFv on phage) VH: EVQLVQSGAEVKKPGASVKVSCKASGYTFTSYGISWVRQAPGQGLEWMGAISAYNGNTNYAQKLQGRVTMTTDTSTSTAYMELRSLRSDDTAVYYCATIDTANAFGIWGQGTMVTVSS VL: QSVLTQPPSVSAAPGQKVTISCSGSSSNIGNNYVSWYQQLPGTAPKLLIYDNNKRPSGIPDRFSGSKSGTSATLGITGLQTGDEADYYCGTWDSSLSGVVFGGGTKLTVL | 103% | 1.37 OD450 | 0.1 |
| anti-P-cadherin scFv 153 alanine-mutant H2.2-Ala (scFv, V domains shown, scFv on phage) VH: EVQLVQSGAEVKKPGASVKVSCKASGYTFTSYGISWVRQAPGQGLEWMGWASAYNGNTNYAQKLQGRVTMTTDTSTSTAYMELRSLRSDDTAVYYCATIDTANAFGIWGQGTMVTVSS VL: QSVLTQPPSVSAAPGQKVTISCSGSSSNIGNNYVSWYQQLPGTAPKLLIYDNNKRPSGIPDRFSGSKSGTSATLGITGLQTGDEADYYCGTWDSSLSGVVFGGGTKLTVL | 166% | 2.2 OD450 | 1.4 |
| anti-P-cadherin scFv 153 alanine-mutant H2.3-Ala (scFv, V domains shown, scFv on phage) VH: EVQLVQSGAEVKKPGASVKVSCKASGYTFTSYGISWVRQAPGQGLEWMGWIAAYNGNTNYAQKLQGRVTMTTDTSTSTAYMELRSLRSDDTAVYYCATIDTANAFGIWGQGTMVTVSS VL: QSVLTQPPSVSAAPGQKVTISCSGSSSNIGNNYVSWYQQLPGTAPKLLIYDNNKRPSGIPDRFSGSKSGTSATLGITGLQTGDEADYYCGTWDSSLSGVVFGGGTKLTVL | 138% | 1.83 OD450 | 0.8 |
| anti-P-cadherin scFv 153 alanine-mutant H2.5-Ala (scFv, V domains shown, scFv on phage) VH: EVQLVQSGAEVKKPGASVKVSCKASGYTFTSYGISWVRQAPGQGLEWMGWISAANGNTNYAQKLQGRVTMTTDTSTSTAYMELRSLRSDDTAVYYCATIDTANAFGIWGQGTMVTVSS VL: QSVLTQPPSVSAAPGQKVTISCSGSSSNIGNNYVSWYQQLPGTAPKLLIYDNNKRPSGIPDRFSGSKSGTSATLGITGLQTGDEADYYCGTWDSSLSGVVFGGGTKLTVL | 34% | 0.45 OD450 | -1.4 |
| anti-P-cadherin scFv 153 alanine-mutant H2.6-Ala (scFv, V domains shown, scFv on phage) VH: EVQLVQSGAEVKKPGASVKVSCKASGYTFTSYGISWVRQAPGQGLEWMGWISAYAGNTNYAQKLQGRVTMTTDTSTSTAYMELRSLRSDDTAVYYCATIDTANAFGIWGQGTMVTVSS VL: QSVLTQPPSVSAAPGQKVTISCSGSSSNIGNNYVSWYQQLPGTAPKLLIYDNNKRPSGIPDRFSGSKSGTSATLGITGLQTGDEADYYCGTWDSSLSGVVFGGGTKLTVL | 80% | 1.06 OD450 | -0.4 |
| anti-P-cadherin scFv 153 alanine-mutant H2.7-Ala (scFv, V domains shown, scFv on phage) VH: EVQLVQSGAEVKKPGASVKVSCKASGYTFTSYGISWVRQAPGQGLEWMGWISAYNANTNYAQKLQGRVTMTTDTSTSTAYMELRSLRSDDTAVYYCATIDTANAFGIWGQGTMVTVSS VL: QSVLTQPPSVSAAPGQKVTISCSGSSSNIGNNYVSWYQQLPGTAPKLLIYDNNKRPSGIPDRFSGSKSGTSATLGITGLQTGDEADYYCGTWDSSLSGVVFGGGTKLTVL | 114% | 1.5 OD450 | 0.3 |
| anti-P-cadherin scFv 153 alanine-mutant H2.8-Ala (scFv, V domains shown, scFv on phage) VH: EVQLVQSGAEVKKPGASVKVSCKASGYTFTSYGISWVRQAPGQGLEWMGWISAYNGATNYAQKLQGRVTMTTDTSTSTAYMELRSLRSDDTAVYYCATIDTANAFGIWGQGTMVTVSS VL: QSVLTQPPSVSAAPGQKVTISCSGSSSNIGNNYVSWYQQLPGTAPKLLIYDNNKRPSGIPDRFSGSKSGTSATLGITGLQTGDEADYYCGTWDSSLSGVVFGGGTKLTVL | 162% | 2.14 OD450 | 1.3 |
